Data: IntAct's records for PubMed 16530190

B1: Actin-binding protein WASF1 (Rattus norvegicus (Rat)), Q5BJU7 (parent)
chain: MPLVKRNIDPRHLCHTALPRGIKNELECVTNISLANIIRQLSSLSKYAEDIFGELFNEAHSFSFRVNSLQERVDRLSVSVTQLDPKEEELSLQDITMRKAFRSSTIQDQQLFDRKTLPIPLQETYDVCEQPPPLNVLTPYRDDGKEGLKFYTNPSYFFDLWKEKMLQDTEDKRKEKRKQKQKNLDRPHEPEKVPRAPHDRRREWQKLAQGPELAEDDADLLHKHIEVANGPASHFETRPQTYVDHMDGSYSLSALPFSQMSELLSRAEERVLVRPHEPPPPPPMHAAGDARPTPTCVSSAAGLIENRPQSPAAGRTPVFVSPTPPPPPPPLPSALSTSSLRASMTSTPPPPVPPPPPPPAPALQAPAVPPPPAPLQIAPGVLHPAPPPIAPPLVQPSPPVARAAPVCETVPVHPLPQGEVQGLPPPPPPPPLPPPGIRPSSPVTVAALAHPPSGLHPTPSPAPGPHAPLMPPSPPSQVLPASEPKRHPSTLPVISDARSVLLEAIRKGIQLRKVEEQREQEAKHERIENDVATILSRRIAVEYSDSEDDSEFDEVDWLE

Variants of: B1
Settings: with gnai3_rat Gnai3, P08753
Chain of gnai3_rat Gnai3, P08753 (P08753 whole entry): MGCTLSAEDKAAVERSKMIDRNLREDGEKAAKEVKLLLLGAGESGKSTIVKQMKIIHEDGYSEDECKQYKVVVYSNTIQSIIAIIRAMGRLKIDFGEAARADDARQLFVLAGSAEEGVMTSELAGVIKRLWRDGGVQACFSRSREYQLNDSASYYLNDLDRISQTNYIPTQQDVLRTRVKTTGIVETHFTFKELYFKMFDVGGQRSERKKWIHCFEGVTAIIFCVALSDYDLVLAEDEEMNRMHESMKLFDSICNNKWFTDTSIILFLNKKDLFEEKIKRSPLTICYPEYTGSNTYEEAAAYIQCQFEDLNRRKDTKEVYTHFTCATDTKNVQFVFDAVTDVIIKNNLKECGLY

Row | Variant | effect of a mutation on the interaction
1 | MPLVKRNIDPRHLCHTALPRGIKNELECVTNISLANIIRQLSSLSKYAEDIFGELFNEAHSFSFRVNSLQERVDRLSVSVTQLDPKEEELSLQDITMRKAFRSSTIQDQQLFDRKTLPIPLQETYDVCEQPPPLNVLTPYRDDGKEGLKFYTNPSYFFDLWKEKMLQDTEDKRKEKRKQKQKNLDRPHEPEKVPRAPHDRRREWQKLAQGPELAEDDADLLHKHIEVANGPASHFETRPQTYVDHMDGSYSLSALPFSQMSELLSRAEERVLVRPHEPPPPPPMHAAGDARPTPTCVSSAAGLIENRPQSPAAGRTPVFVSPTPPPPPPPLPSALSTSSLRASMTSTPPPPVPPPPPPPAPALQAPAVPPPPAPLQIAPGVLHPAPPPIAPPLVQPSPPVARAAPVCETVPVHPLPQGEVQGLPPPPPPPPLPPPGIRPSSPVTVAALAHPPSGLHPTPSPAPGPHAPLMPPSPPSQVLPASEPKRHPSTLPVISDARSVLLEAIRKGIQLRKVEEAREQEAKHERIENDVATILSRRIAVEYSDSEDDSEFDEVDWLE [Q517A] | decreasing interaction

Variants of: B1
Settings: with actb_rat Actb

Row | Variant | effect of a mutation on the interaction
2 | MPLVKRNIDPRHLCHTALPRGIKNELECVTNISLANIIRQLSSLSKYAEDIFGELFNEAHSFSFRVNSLQERVDRLSVSVTQLDPKEEELSLQDITMRKAFRSSTIQDQQLFDRKTLPIPLQETYDVCEQPPPLNVLTPYRDDGKEGLKFYTNPSYFFDLWKEKMLQDTEDKRKEKRKQKQKNLDRPHEPEKVPRAPHDRRREWQKLAQGPELAEDDADLLHKHIEVANGPASHFETRPQTYVDHMDGSYSLSALPFSQMSELLSRAEERVLVRPHEPPPPPPMHAAGDARPTPTCVSSAAGLIENRPQSPAAGRTPVFVSPTPPPPPPPLPSALSTSSLRASMTSTPPPPVPPPPPPPAPALQAPAVPPPPAPLQIAPGVLHPAPPPIAPPLVQPSPPVARAAPVCETVPVHPLPQGEVQGLPPPPPPPPLPPPGIRPSSPVTVAALAHPPSGLHPTPSPAPGPHAPLMPPSPPSQVLPASEPKRHPSTLPVISDARSVLLEAIRKGIQLRKVEEAREQEAKHERIENDVATILSRRIAVEYSDSEDDSEFDEVDWLE [Q517A] | decreasing interaction

Variants of: B1
Settings: with arpc2_human ARPC2, O15144

Row | Variant | effect of a mutation on the interaction
3 | MPLVKRNIDPRHLCHTALPRGIKNELECVTNISLANIIRQLSSLSKYAEDIFGELFNEAHSFSFRVNSLQERVDRLSVSVTQLDPKEEELSLQDITMRKAFRSSTIQDQQLFDRKTLPIPLQETYDVCEQPPPLNVLTPYRDDGKEGLKFYTNPSYFFDLWKEKMLQDTEDKRKEKRKQKQKNLDRPHEPEKVPRAPHDRRREWQKLAQGPELAEDDADLLHKHIEVANGPASHFETRPQTYVDHMDGSYSLSALPFSQMSELLSRAEERVLVRPHEPPPPPPMHAAGDARPTPTCVSSAAGLIENRPQSPAAGRTPVFVSPTPPPPPPPLPSALSTSSLRASMTSTPPPPVPPPPPPPAPALQAPAVPPPPAPLQIAPGVLHPAPPPIAPPLVQPSPPVARAAPVCETVPVHPLPQGEVQGLPPPPPPPPLPPPGIRPSSPVTVAALAHPPSGLHPTPSPAPGPHAPLMPPSPPSQVLPASEPKRHPSTLPVISDARSVLLEAIRKGIQLRKVEEAREQEAKHERIENDVATILSRRIAVEYSDSEDDSEFDEVDWLE [Q517A] | decreasing interaction
